One may read the Kd as the equilibrium constant for the complex coming apart. A word on the koff: it is a measure of how fast the partners let go of each other. For orientation: kon means the second-order rate constant of association.

The target of assay [1] is T1, Recombinant human IL-1beta (rhIL-1b) (human, UniProt P01584 117-269). Description: cell-based or functional assay.
The target in assay [2] is T1, Recombinant human IL-1beta (rhIL-1b). Description: Biacore low-res, mAb captured, 25C; IL-1β in solution (118 nM) over captured mAb; low-resolution Biacore, 25 C. (In SPR one partner is held on a chip, and binding of the other changes the refractive index at the surface.)
Assay [3] shares this target. As to the kind of experiment: cell-based or functional assay. The source holds these as a separate data set.
The next assay deals with T2, IL-1β R11A mutant (human, UniProt P01584 117-269).
T2 construct: site-directed mutant
Description: binding to site-directed IL-1β mutant; X = abrogation of binding.

The target in assay [4] is T1, Recombinant human IL-1beta (rhIL-1b). As to the kind of experiment: Biacore, Medium Resolution; IL-1β in solution; medium-resolution Biacore.
The target is the same in assay [5]. As to the kind of experiment: Biacore, Low Resolution screen.
Assay [6] shares this target. As to the kind of experiment: Biacore high-res, mAb amine-coupled, 23C.
A further assay deals with T3, IL-1β R4A mutant (human, UniProt P01584 117-269).
T3 construct: site-directed mutant
Description: binding to site-directed IL-1β mutant; X = abrogation of binding.

B1: 9.26.1 (antibody, human IgG4, V domains shown)
VH: QVQLVESGGGVVQPGRSLRLSCAASGFTFNNYGMHWVRQAPGKGLECVAVIWYDGGNKYYADSVKGRFAISRDNSKNTLYLQMNSLRAEDTAVYYCTAVTKLNYYYGMDVWGQGTTVTVS
VL: QSALTQPASVSGSPGQSITISCTGTSSDVGGYNYVSWYQQHPGKAPKLMIYEVSNRPSGVSNRFSGSKSGNTASLTISGLQAEDEADYYCSSYTSSSILVFGGGTKLTVL
notes: lambda; also called 9.26.3
As for B1, the “EC50, inhibition of IL-1β-induced IL-6 production in MRC-5 cells” value (from here on “EC50, inhibition”) in assay [1] is 5.68 nM. Besides, in assay [2], the Kd worked out at 0.854 nM, the koff is 0.00035 s⁻¹ and the kon turned out to be 410000 M⁻¹ s⁻¹. Besides, in assay [3], the “% IL-6 production, supernatant 1:5 dilut.” value stood at 12%; the “% IL-6 production, supernatant 1:10 dilut.” value is 27%; the “% IL-6 production, supernatant 1:20 dilut.” value came out at 27%.

B2: 6.33.1 (antibody, human IgG4, V domains shown)
VH: QVQLVESGGGVVQPGRSLRLSCAASGFTFSVYGMHWVRQAPGKGLEWVAVIWYDGSNKYYADSVKGRFTISRDNSKNTLYLQMNSLRAEDTAVYYCAREKSSGWFFDYWGQGTLVTVSS
VL: QSALTQPASVSGSPGQSITISCTGTSSDVGSYNLVSWYQQHPGKAPKLMIYEVSKRPSGISNRFSGSKSGNTASLTISGLQAEDEADYYCCSYAGNSIWVFGGGTKLTVL
notes: lambda; also called mAb 6.33.1
As to B2, the binding result with IL-1β R11A mutant is listed as “no binding”. Also, in assay [4], the Kd stood at 0.14 nM, the koff amounted to 0.00014 s⁻¹ and the kon was 970000 M⁻¹ s⁻¹. In addition, the “EC50, inhibition” value in assay [1] worked out at 1.06 nM. Moreover, in assay [2], the dissociation constant Kd was 0.32 nM, the koff is 0.00016 s⁻¹ and the association rate constant (kon) came out at 500000 M⁻¹ s⁻¹. Besides, the Kd in assay [5] came out at 0.32 nM. Besides, in assay [6], the Kd was found to be 0.236 nM, the off-rate constant (koff) came out at 0.000259 s⁻¹ and the kon was 1.1e+06 M⁻¹ s⁻¹. In addition, in assay [3], the “% IL-6 production, supernatant 1:5 dilut.” value was found to be 13%; the “% IL-6 production, supernatant 1:10 dilut.” value worked out at 22%; the “% IL-6 production, supernatant 1:20 dilut.” value is 22%.

B3: 9.11.1 (antibody, human IgG4, V domains shown)
VH: QVQLVESGGGVVQPGRSLRLSCAASGFTFSVYGMHWVRQAPGKGLEWVAVIWYDGNNKYYVDSVKGRFTISRDNSKNTLYLQLNSLRAEDTAVYYCARERSSSWYFDYWGQGTLVTVSS
VL: QSALTQPASVSGSSGQSITISCTGTSSDVGSYNLVSWYQQHPGKAPKLMIYEVSKRPSGVSNRFSGSKSGNTASLTISGLQAEDEADYYCCSYAGNSNWVFGGGTKLTVL
notes: lambda; also called 9.11.3
Regarding B3, the binding result with IL-1β R11A mutant was “no binding”. In assay [4], the Kd is 0.14 nM, the koff was 0.00023 s⁻¹ and the kon worked out at 1.6e+06 M⁻¹ s⁻¹. For the same molecule, the “EC50, inhibition” value in assay [1] was 2.67 nM. In addition, in assay [2], the Kd was determined as 0.29 nM, the koff was found to be 0.0002 s⁻¹ and the kon came to 690000 M⁻¹ s⁻¹. Further, the Kd in assay [5] was found to be 0.29 nM. Further, in assay [3], the “% IL-6 production, supernatant 1:5 dilut.” value is 4%; the “% IL-6 production, supernatant 1:10 dilut.” value was found to be 3%; the “% IL-6 production, supernatant 1:20 dilut.” value is 10%.

B4: 9.19.1 (antibody, human IgG4, V domains shown)
VH: QVQLVESGGGVVQPGRSLRLSCAASGFTFNNYGMHWVRQAPGKGLECVAVIWYDGGNKYYADSVKGRFAISRDNSKNTLYLQMNSLRAEDTAVYYCTAVTKLNYYYGMDVWGQRTTVTVS
VL: QSALTQPASVSGSPGQSITISCTGTSSDVGGYNYVSWYQQHPGKAPKFMIYEVSNRPSGVSNRFSGSKSGNTASLTISGLQAEDEADYYCSSYTSSSILVFGGGTKLTVL
notes: lambda; also called mAb 9.19.1
In the case of B4, in assay [4], the Kd is 0.063 nM, the koff was found to be 4e-05 s⁻¹ and the kon stood at 640000 M⁻¹ s⁻¹. For the same molecule, in assay [1], the “EC50, inhibition” value came out at 2.91 nM. In assay [2], the Kd came to 0.268 nM, the koff stood at 0.00015 s⁻¹ and the kon turned out to be 560000 M⁻¹ s⁻¹. For the same molecule, in assay [6], the Kd stood at 0.262 nM, the koff came to 0.00019 s⁻¹ and the on-rate constant (kon) came to 727000 M⁻¹ s⁻¹. Moreover, in assay [3], the “% IL-6 production, supernatant 1:5 dilut.” value was 5%; the “% IL-6 production, supernatant 1:10 dilut.” value worked out at 10%; the “% IL-6 production, supernatant 1:20 dilut.” value turned out to be 15%.

B5: 9.2.1 (antibody, human IgG4, V domains shown)
VH: QVQLVESGGGVVQPGRSLRLSCAASGFTFNNYGMHWVRQAPGKGLECVAVIWYDGGNKYYADSVKGRFAISRDNSKNTLYLQMNSLRAEDTAVYYCTAVTTLYYYYGMDVWGQGTTVTVS
VL: QSALTQPASVSGSPGQSITISCTGTSSDVGGYNYVSWYQQHPGKAPKLMIYEVSNRPSGVSNRFSGSKSGNTASLTISGLQAEDEADYYCSSYTSSSILVFGGGTKLTVL
notes: lambda
As for B5, the binding result with IL-1β R11A mutant is “no binding”. Moreover, in assay [4], the Kd was determined as 0.29 nM, the koff was 0.00035 s⁻¹ and the on-rate (kon) worked out at 1.2e+06 M⁻¹ s⁻¹. The “EC50, inhibition” value in assay [1] worked out at 5.47 nM. Moreover, in assay [2], the Kd was 0.747 nM, the koff was found to be 0.00074 s⁻¹ and the kon came to 990000 M⁻¹ s⁻¹. Moreover, the Kd in assay [5] came to 0.747 nM. In addition, in assay [3], the “% IL-6 production, supernatant 1:5 dilut.” value amounted to 4%; the “% IL-6 production, supernatant 1:10 dilut.” value is 8%; the “% IL-6 production, supernatant 1:20 dilut.” value turned out to be 16%.

B6: 6.26.1 (antibody, human IgG4, V domains shown)
VH: QLQLQESGPGLVKPSETLSLTCTVSGGSISRSSYYWGWIRQPPGKGLEWMGNIYYSGSTHYNPSLKSRVTISVDTSKNQFSLKLSSVTAADTAVFYCAKGREYISSSGYGMDVWGQGTTVTVS
VL: SYELTQPPSVSVSPGQTASITCSGDKLGNKYVCWYQQKPGQSPVLVIFQDSRRPSGIPERFSGSNSGNTATLTISGTQAMDEADYYCQAWDTSTVIFGGGTKLTVL
notes: lambda; also called 6.26.4
On to B6, for which the binding result with IL-1β R11A mutant was “no binding”. Besides, in assay [4], the Kd was 0.2 nM, the koff was found to be 0.00038 s⁻¹ and the kon is 1.9e+06 M⁻¹ s⁻¹. Moreover, the “EC50, inhibition” value in assay [1] amounted to 0.591 nM. In assay [2], the Kd was found to be 0.478 nM, the koff came to 0.00044 s⁻¹ and the association rate constant (kon) was 920000 M⁻¹ s⁻¹. In assay [5], the Kd stood at 0.478 nM. Further, in assay [3], the “% IL-6 production, supernatant 1:5 dilut.” value was 9%; the “% IL-6 production, supernatant 1:10 dilut.” value is 8%; the “% IL-6 production, supernatant 1:20 dilut.” value was determined as 22%.

B7: 8.6.1 (antibody, human IgG4, V domains shown)
VH: QVQLQESGPGLVKPSETLSLTCTVSGGSVSSGGYYWSWVRQPPGKGLEWIGCIYFSESTNYNPSLKSRVTISVDTSKNQFSLKLSSVTAADTAVYYCARDPMHYYGMDVWGQGTTVTVSS
VL: SFELTQPPSVSVSPGQTASITCSGDKLGDKFACWYQQKPGQSPVLVIYQDTKRPSGIPERISGSNSGNTATLTISGTQAMDEADYYCQAWDSSTYVVFGGGTKLTVL
notes: lambda; also called 8.6.3
Turning to B7, the figures for the Kd in assay [4], in assay [2] and in assay [5] were 0.82 nM, 1.23 nM and 1.23 nM, respectively. Moreover, the “EC50, inhibition” value in assay [1] turned out to be 1.59 nM. Also, the “% IL-6 production, supernatant 1:5 dilut.” value in assay [3] was found to be 6%. In assay [3], the “% IL-6 production, supernatant 1:10 dilut.” value came to 8%. Further, in assay [3], the “% IL-6 production, supernatant 1:20 dilut.” value was 23%.

B8: 4.20.1 (antibody, human IgG4, V domains shown)
VH: QVQLVESGGGVVQPGRSLRLSCAASGFTFSNYGMNWVRQAPGKGLEWVAVIWYDGNNKSEADSVKGRFTISRDNSKNTLYLQMNSLRAEDTAVYYCARDSRSGPFDYWGQGTLVTVSS
VL: EIVLTQSPDFQSVTPKEKVTITCRASQSIGSSLHWYQQKPDQSPKLLIKFASQSFSGVPSRISGSGSGTDFTLTINSLEAEDAATYYCHQSSSLPFTFGPGTKVDIK
notes: kappa; also called 4.20.2
Consider B8, for which the binding result with IL-1β R4A mutant and with IL-1β R11A mutant was “no binding” throughout. The equilibrium dissociation constant (Kd) in assay [2] was 5 nM.

B9: 9.31.1 (antibody, human IgG4, V domains shown)
VH: QVQLVESGGGLVKPGGSLRLSCAASGFTFSDYYMSWIRQAPGKGLEWVSYIRSSGSTIYYADSVKGRFTISRDNAKNSLYLQMNSLRAEDTAVYYCARTPYSGRYHWYFDLWGRGTLVTVS
VL: SYELTQPPSVSVSPGQTARITCSGDALPIKYAYWYQHKSGQAPVLVIYEDSKRPSGIPERFSGSSSGTMATLTISGAQVEDEADYYCYSTDSSGNHRVFGGGTKLTVL
notes: lambda; also called 9.31.3
B9: the binding result with IL-1β R11A mutant is listed as “no binding”. Besides, in assay [1], the “EC50, inhibition” value was determined as 14.3 nM. In assay [2], the Kd is 5.76 nM, the koff was found to be 0.0038 s⁻¹ and the kon is 660000 M⁻¹ s⁻¹. Also, in assay [3], the “% IL-6 production, supernatant 1:5 dilut.” value stood at 6%; the “% IL-6 production, supernatant 1:10 dilut.” value amounted to 23%; the “% IL-6 production, supernatant 1:20 dilut.” value was determined as 13%.

B10: 8.50.1 (antibody, human IgG4, V domains shown)
VH: QVQLQESGPGLVKPSETLSLTCTVSGGSISSDYWSWIRQPAGKGLEWIGRFYNSGRTNYRPSLKSRITMSVDTSKNQFSLKLSSVTAADTAVYYCARDMYSGRGNWYFDLWGRGTLVTVS
VL: SYELTQPPSVSVSPGQTARITCSGDALPKKYAYWYQQKSGQAPVLVIYEDSKRPSGIPERFSGSSSGTMATLTISGAQVEDEADYYCYSTDSSDNHRVFGGGTKLTVL
notes: lambda
Consider B10, for which the binding result with IL-1β R11A mutant is recorded as “no binding”. Further, in assay [2], the Kd stood at 9 nM, the koff came out at 0.027 s⁻¹ and the association rate constant (kon) turned out to be 3e+06 M⁻¹ s⁻¹.

(Values after US20070065439A1 (Amgen, published 2007).)
